Data taken from paper PMC10663500, “High-throughput analysis system of interaction kinetics for data-driven antibody design” (Scientific Reports, 2023).

Columns and labels:
[1] = target: T1, human programmed cell death protein 1 (hPD-1) C93S (aa 24-167) (Homo sapiens, UniProt Q15116, C93S); assay: SPR; Carterra LSA; Fab from the ammonium sulfate precipitate of the culture supernatant immobilised on a NiHC200M chip; hPD-1 (1-1024 nM) or mPD-1-Fc (4-1024 nM) as analyte, fourfold dilution series, no regeneration; HBS-EP pH 7.4, 25 °C; medians over the spots of a construct, KD = koff/kon; settings: one partner purified
T1 construct: made as a fusion with a TEV site and human Fc; the Fc was cut off with TEV protease; source: Expi293F, purified (Protein A, TEV cleavage of Fc, SEC; monomer fractions); not shown: Fc (human), C-terminal, cleaved
Method in brief: (§1)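 On a Carterra LSA at 25 °C, duplicate captures of Fabs were made on a NiHC200M chip; the Fabs came from Brevibacillus culture supernatants, were precipitated with ammonium sulfate and were redissolved in HBS-EP. Fourfold series of human PD-1 (1–1024 nM) or mouse PD-1-Fc (4–1024 nM) were passed over without regeneration, with 10 min association and 5 min dissociation. Binders that were not confirmed were assigned kon 10^3 […] and koff 10^−2 s^−1. The kdka model, run with slow- or fast-dissociation settings and keeping the better fit, gave the rates, and KD was taken as koff/kon from the median values for each construct.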

[2] = target: T2, mouse programmed cell death protein 1 Fc fusion protein (mPD-1-Fc), mPD-1 C60S (aa 25-167) (Mus musculus, UniProt Q02242, stabilised); assay: as above; settings: one partner purified
T2 construct: not cleaved; source: Expi293F, purified (Protein A, SEC; dimeric fraction); not shown: Fc (human), C-terminal, kept
Method in brief: as §1

T1 sequence (Q15116 24-167 C93S): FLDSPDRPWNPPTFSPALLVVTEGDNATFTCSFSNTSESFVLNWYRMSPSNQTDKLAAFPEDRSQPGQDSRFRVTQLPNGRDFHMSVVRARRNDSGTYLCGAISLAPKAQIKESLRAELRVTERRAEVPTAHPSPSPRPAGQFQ

Binder	Kd [1] [nM]	koff [1] [s⁻¹]	kon [1] [M⁻¹ s⁻¹]	Kd [2] [nM]	koff [2] [s⁻¹]	kon [2] [M⁻¹ s⁻¹]
toripalimab Fab L.V56Y (Fab, V domains shown, as the heavy chain of Sm3; light chain of Sm3 with this change; numbers count from the chain's first residue; source: Brevibacillus, culture supernatant (ammonium sulfate precipitate); not shown: 6xHis, C-terminal, kept; 6xHN, C-terminal, kept) VH: QGQLVQSGAEVKKPGASVKVSCKASGYTFTDYEMHWVRQAPIHGLEWIGVIESETGGTAYNQKFKGRVTITADKSTSTAYMELSSLRSEDTAVYYCAREGITTVATTYYWYFDVWGQGTTVTVSS VL: DVVMTQSPLSLPVTLGQPASISCRSSQSIVHSNGNTYLEWYLQKPGQSPQLLIYKYSNRFSGVPDRFSGSGSGTDFTLKISRVEAEDVGVYYCFQGSHVPLTFGQGTKLEIK	< 1.47	< 1e-05	6790	290	0.0104	35800
toripalimab Fab L.F60A (Fab, V domains shown, as the heavy chain of Sm3; light chain of Sm3 with this change; numbers count from the chain's first residue; source: Brevibacillus, culture supernatant (ammonium sulfate precipitate); not shown: 6xHis, C-terminal, kept; 6xHN, C-terminal, kept) VH: QGQLVQSGAEVKKPGASVKVSCKASGYTFTDYEMHWVRQAPIHGLEWIGVIESETGGTAYNQKFKGRVTITADKSTSTAYMELSSLRSEDTAVYYCAREGITTVATTYYWYFDVWGQGTTVTVSS VL: DVVMTQSPLSLPVTLGQPASISCRSSQSIVHSNGNTYLEWYLQKPGQSPQLLIYKVSNRASGVPDRFSGSGSGTDFTLKISRVEAEDVGVYYCFQGSHVPLTFGQGTKLEIK	< 0.669	< 1e-05	14900	182	0.00605	33300
toripalimab Fab L.N58Y (Fab, V domains shown, as the heavy chain of Sm3; light chain of Sm3 with this change; numbers count from the chain's first residue; source: Brevibacillus, culture supernatant (ammonium sulfate precipitate); not shown: 6xHis, C-terminal, kept; 6xHN, C-terminal, kept) VH: QGQLVQSGAEVKKPGASVKVSCKASGYTFTDYEMHWVRQAPIHGLEWIGVIESETGGTAYNQKFKGRVTITADKSTSTAYMELSSLRSEDTAVYYCAREGITTVATTYYWYFDVWGQGTTVTVSS VL: DVVMTQSPLSLPVTLGQPASISCRSSQSIVHSNGNTYLEWYLQKPGQSPQLLIYKVSYRFSGVPDRFSGSGSGTDFTLKISRVEAEDVGVYYCFQGSHVPLTFGQGTKLEIK	< 1.62	< 1e-05	6150	226	0.00916	40500
toripalimab Fab L.S61Y (Fab, V domains shown, as the heavy chain of Sm3; light chain of Sm3 with this change; numbers count from the chain's first residue; source: Brevibacillus, culture supernatant (ammonium sulfate precipitate); not shown: 6xHis, C-terminal, kept; 6xHN, C-terminal, kept) VH: QGQLVQSGAEVKKPGASVKVSCKASGYTFTDYEMHWVRQAPIHGLEWIGVIESETGGTAYNQKFKGRVTITADKSTSTAYMELSSLRSEDTAVYYCAREGITTVATTYYWYFDVWGQGTTVTVSS VL: DVVMTQSPLSLPVTLGQPASISCRSSQSIVHSNGNTYLEWYLQKPGQSPQLLIYKVSNRFYGVPDRFSGSGSGTDFTLKISRVEAEDVGVYYCFQGSHVPLTFGQGTKLEIK	< 0.5	< 1e-05	20000	103	0.0044	42500
toripalimab Fab L.N58A (Fab, V domains shown, as the heavy chain of Sm3; light chain of Sm3 with this change; numbers count from the chain's first residue; source: Brevibacillus, culture supernatant (ammonium sulfate precipitate); not shown: 6xHis, C-terminal, kept; 6xHN, C-terminal, kept) VH: QGQLVQSGAEVKKPGASVKVSCKASGYTFTDYEMHWVRQAPIHGLEWIGVIESETGGTAYNQKFKGRVTITADKSTSTAYMELSSLRSEDTAVYYCAREGITTVATTYYWYFDVWGQGTTVTVSS VL: DVVMTQSPLSLPVTLGQPASISCRSSQSIVHSNGNTYLEWYLQKPGQSPQLLIYKVSARFSGVPDRFSGSGSGTDFTLKISRVEAEDVGVYYCFQGSHVPLTFGQGTKLEIK	< 1.31	< 1e-05	7630	186	0.00793	42600
toripalimab Fab L.F60Y (Fab, V domains shown, as the heavy chain of Sm3; light chain of Sm3 with this change; numbers count from the chain's first residue; source: Brevibacillus, culture supernatant (ammonium sulfate precipitate); not shown: 6xHis, C-terminal, kept; 6xHN, C-terminal, kept) VH: QGQLVQSGAEVKKPGASVKVSCKASGYTFTDYEMHWVRQAPIHGLEWIGVIESETGGTAYNQKFKGRVTITADKSTSTAYMELSSLRSEDTAVYYCAREGITTVATTYYWYFDVWGQGTTVTVSS VL: DVVMTQSPLSLPVTLGQPASISCRSSQSIVHSNGNTYLEWYLQKPGQSPQLLIYKVSNRYSGVPDRFSGSGSGTDFTLKISRVEAEDVGVYYCFQGSHVPLTFGQGTKLEIK	0.608	1.12e-05	18400	133	0.00463	34800
toripalimab Fab L.R59Y (Fab, V domains shown, as the heavy chain of Sm3; light chain of Sm3 with this change; numbers count from the chain's first residue; source: Brevibacillus, culture supernatant (ammonium sulfate precipitate); not shown: 6xHis, C-terminal, kept; 6xHN, C-terminal, kept) VH: QGQLVQSGAEVKKPGASVKVSCKASGYTFTDYEMHWVRQAPIHGLEWIGVIESETGGTAYNQKFKGRVTITADKSTSTAYMELSSLRSEDTAVYYCAREGITTVATTYYWYFDVWGQGTTVTVSS VL: DVVMTQSPLSLPVTLGQPASISCRSSQSIVHSNGNTYLEWYLQKPGQSPQLLIYKVSNYFSGVPDRFSGSGSGTDFTLKISRVEAEDVGVYYCFQGSHVPLTFGQGTKLEIK	< 0.356	< 1e-05	28100	213	0.00916	43000
toripalimab Fab L.F94A (Fab, V domains shown, as the heavy chain of Sm3; light chain of Sm3 with this change; numbers count from the chain's first residue; source: Brevibacillus, culture supernatant (ammonium sulfate precipitate); not shown: 6xHis, C-terminal, kept; 6xHN, C-terminal, kept) VH: QGQLVQSGAEVKKPGASVKVSCKASGYTFTDYEMHWVRQAPIHGLEWIGVIESETGGTAYNQKFKGRVTITADKSTSTAYMELSSLRSEDTAVYYCAREGITTVATTYYWYFDVWGQGTTVTVSS VL: DVVMTQSPLSLPVTLGQPASISCRSSQSIVHSNGNTYLEWYLQKPGQSPQLLIYKVSNRFSGVPDRFSGSGSGTDFTLKISRVEAEDVGVYYCAQGSHVPLTFGQGTKLEIK	< 2.46	< 1e-05	4060	177	0.000967	5460
toripalimab Fab L.S57A (Fab, V domains shown, as the heavy chain of Sm3; light chain of Sm3 with this change; numbers count from the chain's first residue; source: Brevibacillus, culture supernatant (ammonium sulfate precipitate); not shown: 6xHis, C-terminal, kept; 6xHN, C-terminal, kept) VH: QGQLVQSGAEVKKPGASVKVSCKASGYTFTDYEMHWVRQAPIHGLEWIGVIESETGGTAYNQKFKGRVTITADKSTSTAYMELSSLRSEDTAVYYCAREGITTVATTYYWYFDVWGQGTTVTVSS VL: DVVMTQSPLSLPVTLGQPASISCRSSQSIVHSNGNTYLEWYLQKPGQSPQLLIYKVANRFSGVPDRFSGSGSGTDFTLKISRVEAEDVGVYYCFQGSHVPLTFGQGTKLEIK	< 0.698	< 1e-05	14300	209	0.00805	38500
toripalimab Fab L.S61A (Fab, V domains shown, as the heavy chain of Sm3; light chain of Sm3 with this change; numbers count from the chain's first residue; source: Brevibacillus, culture supernatant (ammonium sulfate precipitate); not shown: 6xHis, C-terminal, kept; 6xHN, C-terminal, kept) VH: QGQLVQSGAEVKKPGASVKVSCKASGYTFTDYEMHWVRQAPIHGLEWIGVIESETGGTAYNQKFKGRVTITADKSTSTAYMELSSLRSEDTAVYYCAREGITTVATTYYWYFDVWGQGTTVTVSS VL: DVVMTQSPLSLPVTLGQPASISCRSSQSIVHSNGNTYLEWYLQKPGQSPQLLIYKVSNRFAGVPDRFSGSGSGTDFTLKISRVEAEDVGVYYCFQGSHVPLTFGQGTKLEIK	1.39	2.72e-05	19600	103	0.00447	43400
toripalimab Fab L.S57Y (Fab, V domains shown, as the heavy chain of Sm3; light chain of Sm3 with this change; numbers count from the chain's first residue; source: Brevibacillus, culture supernatant (ammonium sulfate precipitate); not shown: 6xHis, C-terminal, kept; 6xHN, C-terminal, kept) VH: QGQLVQSGAEVKKPGASVKVSCKASGYTFTDYEMHWVRQAPIHGLEWIGVIESETGGTAYNQKFKGRVTITADKSTSTAYMELSSLRSEDTAVYYCAREGITTVATTYYWYFDVWGQGTTVTVSS VL: DVVMTQSPLSLPVTLGQPASISCRSSQSIVHSNGNTYLEWYLQKPGQSPQLLIYKVYNRFSGVPDRFSGSGSGTDFTLKISRVEAEDVGVYYCFQGSHVPLTFGQGTKLEIK	< 0.338	< 1e-05	29500	119	0.0054	45300
toripalimab Fab L.R59A (Fab, V domains shown, as the heavy chain of Sm3; light chain of Sm3 with this change; numbers count from the chain's first residue; source: Brevibacillus, culture supernatant (ammonium sulfate precipitate); not shown: 6xHis, C-terminal, kept; 6xHN, C-terminal, kept) VH: QGQLVQSGAEVKKPGASVKVSCKASGYTFTDYEMHWVRQAPIHGLEWIGVIESETGGTAYNQKFKGRVTITADKSTSTAYMELSSLRSEDTAVYYCAREGITTVATTYYWYFDVWGQGTTVTVSS VL: DVVMTQSPLSLPVTLGQPASISCRSSQSIVHSNGNTYLEWYLQKPGQSPQLLIYKVSNAFSGVPDRFSGSGSGTDFTLKISRVEAEDVGVYYCFQGSHVPLTFGQGTKLEIK	< 0.377	< 1e-05	26600	130	0.00551	42400
